{"source": "patent US20220380768A1", "about": "(TALLAC THERAPEUTICS, published 2022)", "key": {"[1]": {"target": "T1, cynomolgus monkey CD22 on B cells of cynomolgus PBMCs (cynomolgus monkey)", "T1 construct": "whole, on cells; also called cynomolgus CD22; Cyno CD22", "experiment": "flow cytometry; Alexa Fluor 647-labelled antibody on CD20+ B cells of cynomolgus PBMCs", "method": "(§1) Binding of humanized anti-CD22 antibodies to human or cynomolgus PBMCs was measured by flow cytometry. Trima residuals were received from Vitalant and cynomolgus monkey whole blood were received from BioIVT. Both were diluted 1:4 with Phosphate Buffered Saline (PBS, Gibco). Diluted blood was split into two tubes and underplayed with 15 mL Ficoll-Paque (GE Healthcare). Tubes were centrifuged for 30 minutes at 400×g. PBMCs were collected from the interface, washed and resuspended in FACS buffer (PBS with 0.5% Bovine Serum Albumin (Gibco)). 100K PBMCs from human and cynomolgus monkey were plated in 96-well plates and pelleted by centrifugation for five minutes at 400×g and stained at 4° C. in 100 μl Fixable Viability Dye eFluor 780 (Thermo Fisher) diluted 1:4000 in PBS. Cells were centrifuged and stained at 4° C. in 100 μl FACS buffer for 30 minutes containing FcR Blocking Reagent (Miltenyi Biotec), anti-CD20 and Alexa Fluor 647 conjugated CD22 binding antibodies, which were labeled using Molecular Probes Alexa Fluor 647 Protein Labeling kit (Molecular Probes) according to manufacturer's protocol. Cells were centrifuged and washed twice in 200 μl FACS buffer and fixed in 100 μl 0.5% paraformaldehyde. Cells were analyzed on Attune NxT Flow Cytometer (Thermo Fisher), with subsequent data analysis by Flowjo 10.7 (Treestar). Dead cells were excluded by gating on the eFluor 780-negative population. CD20+ cells were gated to identify B cells and median fluorescent intensity for CD22 was determined."}, "[2]": {"target": "T2, human CD22 (d1 to d7 domain according to NP_001762.2) (human, UniProt P20273 20-687)", "T2 construct": "domain: d1 to d7 domain; also called human CD22-gly; Siglec-2", "experiment": "SPR; summary table, column 'CD22 KD (nM)'"}, "[3]": {"target": "T2, human CD22 (d1 to d7 domain according …)", "experiment": "SPR; mAb supernatant captured on protein A chip, human CD22 injected", "method": "Binding of humanized anti-CD22 antibodies to human CD22 was measured by surface plasmon resonance (SPR). For assessment of binding by SPR, biotinylated protein A (15 μg/mL) was immobilized to the surface of an NLC chip. 30 μL of mAb supernatant was added to 150 μL of PBS-T and captured over the protein A surface. Serial dilutions of human CD22-gly (300 nM, 3× dilution) were injected over the mAb-coated chips, and binding kinetics were determined. Chips were regenerated using 4:1 v/v of Pierce IgG elution butter/4M NaCl."}, "[4]": {"target": "T3, human CD22 on B cells of human PBMCs (human, UniProt P20273 20-847)", "T3 construct": "whole, on cells; also called CD22 on human B cells", "experiment": "flow cytometry; Alexa Fluor 647-labelled antibody, human PBMCs", "method": "as §1\n(§2) The fold increase in binding was determined by calculating the ratio of CD22 median fluorescent intensity on CD20⁺ over CD20⁻ cells."}, "[5]": {"target": "T1, cynomolgus monkey CD22 on B cells of …", "experiment": "flow cytometry; Alexa Fluor 647-labelled antibody, cynomolgus PBMCs", "method": "as §1, §2"}, "[6]": {"target": "T3, human CD22 on B cells of human PBMCs", "experiment": "flow cytometry; Alexa Fluor 647-labelled antibody on CD20+ B cells of human PBMCs", "method": "as §1"}, "[7]": {"target": "T2, human CD22 (d1 to d7 domain according …)", "experiment": "SPR; purified naked mAb captured on protein A chip, human CD22 injected", "method": "To assess if CpG conjugation affects the binding of respective humanized anti-CD22 to human CD22, SPR assay was carried out. […] Briefly, biotinylated protein A (15 μg/mL) was immobilized to the surface of an NLC chip. 30 nM of purified naked mAb or CpG conjugated mAb solution in PBS-T was used for capture over the protein A surface. Serial dilutions of human CD22 (300 nM, 3× dilution) were injected over the mAb-coated chips, and binding kinetics were determined. Chips were regenerated using 4:1 v/v of Pierce IgG elution butter/4M NaCl."}}, "data": [{"binder": "TNT88 (antibody, human IgG1, kappa, V domains shown) VH: QVQLQESGPGLVKPSDTLSLTCTVSGFAFSIYDMSWIRQPPGKGLEWIAYISSGGGTTYYNPSLKSRVTISVDTSKNQFSLKLSSVTAADTAVYYCARHSGYGTHWGVLFAYWGRGTLVTVSS VL: DIVMTQTPLSLSVTPGQPASISCRASQDIHGYLNWYQQKPGQSPQLLIYYTSILHSGVPDRFSGSGSGTDFTLKISRVEAEDVGVYFCQQGNTLPWTFGGGTKLEIKR", "values": [{"measurement": "CD22 Median Fluorescent Intensity on CD20+ cells", "setting": "[1]", "value": 1270}, {"measurement": "Kd", "setting": "[2]", "value": 1.3, "unit": "nM"}, {"measurement": "Kd", "setting": "[3]", "value": 1.34, "unit": "nM"}, {"measurement": "koff", "setting": "[3]", "value": 0.000289, "unit": "s⁻¹"}, {"measurement": "kon", "setting": "[3]", "value": 215000, "unit": "M⁻¹ s⁻¹"}, {"measurement": "CD22: CD20+/CD20- (ratio of median fluorescent intensity)", "setting": "[4]", "value": 26.2, "unit": "fold"}, {"measurement": "CD22: CD20+/CD20- (ratio of median fluorescent intensity)", "setting": "[5]", "value": 14.7, "unit": "fold"}, {"measurement": "CD22 Median Fluorescent Intensity on CD20+ cells", "setting": "[6]", "value": 1530}]}, {"binder": "TNT71 (antibody, human IgG1, kappa, V domains shown) VH: EVQLVESGGGLVQPGGSLRLSCAASGFTFSSYEMNWVRQAPGKGLEWVSYISSSGSTIYYADSVKGRFTISRDNAKNSLYLQMNSLRAEDTAVYYCARHSGYGTHWGVLFAYWGRGTLVTVSS VL: DIQMTQSPSSLSASVGDRVTITCRASQDIHGYLNWYQQKPGKAPKLLIYYTSILHSGVPSRFSGSGSGTDFTLTISSLQPEDFATYFCQQGNTLPWTFGQGTKLEIKR", "values": [{"measurement": "CD22 Median Fluorescent Intensity on CD20+ cells", "setting": "[1]", "value": 1420}, {"measurement": "Kd", "setting": "[7]", "value": 0.263, "unit": "nM"}, {"measurement": "Kd", "setting": "[2]", "value": 0.3, "unit": "nM"}, {"measurement": "Kd", "setting": "[3]", "value": 5.2, "unit": "nM"}, {"measurement": "CD22 Median Fluorescent Intensity on CD20+ cells", "setting": "[6]", "value": 1460}]}, {"binder": "TNT72 (antibody, human IgG1, kappa, V domains shown) VH: QVQLQESGPGLVKPSDTLSLTCTVSGFAFSIYDMSWIRQPPGKGLEWIAYISSGGGTTYYNPSLKSRVTISVDTSKNQFSLKLSSVTAADTAVYYCARHSGYGTHWGVLFAYWGRGTLVTVSS VL: DIQMTQSPSSLSASVGDRVTITCRASQDIHGYLNWYQQKPGKAPKLLIYYTSILHSGVPSRFSGSGSGTDFTLTISSLQPEDFATYFCQQGNTLPWTFGQGTKLEIKR", "values": [{"measurement": "CD22 Median Fluorescent Intensity on CD20+ cells", "setting": "[1]", "value": 1370}, {"measurement": "Kd", "setting": "[7]", "value": 0.922, "unit": "nM"}, {"measurement": "Kd", "setting": "[2]", "value": 0.7, "unit": "nM"}, {"measurement": "Kd", "setting": "[3]", "value": 0.655, "unit": "nM"}, {"measurement": "CD22 Median Fluorescent Intensity on CD20+ cells", "setting": "[6]", "value": 1560}]}, {"binder": "TNT77 (antibody, human IgG1, kappa, V domains shown) VH: EVQLVESGGGLVQPGGSLRLSCAASGFAFSIYDMSWVRQAPGKGLEWVAYISSGGGTTYYPDTVKGRFTISRDNSKNTLYLQMNSLRAEDTAVYYCARHSGYGTHWGVLFAYWGRGTLVTVSS VL: DIQMTQSPSSLSASVGDRVTITCRASQSISSYLNWYQQKPGKAPKLLIYAASSLQSGVPSRFSGSGSGTDFTLTISSLQPEDFATYYCQQGNTLPWTFGQGTKLEIKR", "values": [{"measurement": "CD22 Median Fluorescent Intensity on CD20+ cells", "setting": "[1]", "value": 236}, {"measurement": "Kd", "setting": "[2]", "value": 10, "unit": "nM"}, {"measurement": "Kd", "setting": "[3]", "value": 10.2, "unit": "nM"}, {"measurement": "koff", "setting": "[3]", "value": 0.00207, "unit": "s⁻¹"}, {"measurement": "kon", "setting": "[3]", "value": 203000, "unit": "M⁻¹ s⁻¹"}, {"measurement": "CD22: CD20+/CD20- (ratio of median fluorescent intensity)", "setting": "[4]", "value": 20.9, "unit": "fold"}, {"measurement": "CD22: CD20+/CD20- (ratio of median fluorescent intensity)", "setting": "[5]", "value": 2.6, "unit": "fold"}, {"measurement": "CD22 Median Fluorescent Intensity on CD20+ cells", "setting": "[6]", "value": 1320}]}, {"binder": "TNT82 (antibody, human IgG1, kappa, V domains shown) VH: QVQLLESGGGVVQPGGSLRLSCAASGFAFSIYDMNWVRQAPGKGLEWVSAISSGGGTTYYADSVKGRFTISRDNAKNSLYLQMNSLRAEDTAVYYCARHSGYGTHWGVLFAYWGRGTLVTVSS VL: EIVLTQSPATLSLSPGERATLSCRASQDIHGYLNWYQQKPGQAPRLLIYYTSILHSGIPARFSGSGPGTDFTLTISSLEPEDFAVYYCQQGNTLPWTFGGGTKLEIKR", "values": [{"measurement": "CD22 Median Fluorescent Intensity on CD20+ cells", "setting": "[1]", "value": 1170}, {"measurement": "Kd", "setting": "[2]", "value": 0.9, "unit": "nM"}, {"measurement": "Kd", "setting": "[3]", "value": 0.937, "unit": "nM"}, {"measurement": "koff", "setting": "[3]", "value": 0.000156, "unit": "s⁻¹"}, {"measurement": "kon", "setting": "[3]", "value": 167000, "unit": "M⁻¹ s⁻¹"}, {"measurement": "CD22: CD20+/CD20- (ratio of median fluorescent intensity)", "setting": "[4]", "value": 23.9, "unit": "fold"}, {"measurement": "CD22: CD20+/CD20- (ratio of median fluorescent intensity)", "setting": "[5]", "value": 12.6, "unit": "fold"}, {"measurement": "CD22 Median Fluorescent Intensity on CD20+ cells", "setting": "[6]", "value": 1520}]}, {"binder": "TNT83 (antibody, human IgG1, kappa, V domains shown) VH: EVQLVESGGGLVQPGGSLRLSCAASGFTFSSYEMNWVRQAPGKGLEWVSYISSSGSTIYYADSVKGRFTISRDNAKNSLYLQMNSLRAEDTAVYYCARHSGYGTHWGVLFAYWGRGTLVTVSS VL: EIVLTQSPATLSLSPGERATLSCRASQDIHGYLNWYQQKPGQAPRLLIYYTSILHSGIPARFSGSGPGTDFTLTISSLEPEDFAVYYCQQGNTLPWTFGGGTKLEIKR", "values": [{"measurement": "CD22 Median Fluorescent Intensity on CD20+ cells", "setting": "[1]", "value": 1400}, {"measurement": "Kd", "setting": "[2]", "value": 6, "unit": "nM"}, {"measurement": "Kd", "setting": "[3]", "value": 5.94, "unit": "nM"}, {"measurement": "koff", "setting": "[3]", "value": 0.0016, "unit": "s⁻¹"}, {"measurement": "kon", "setting": "[3]", "value": 269000, "unit": "M⁻¹ s⁻¹"}, {"measurement": "CD22: CD20+/CD20- (ratio of median fluorescent intensity)", "setting": "[4]", "value": 23, "unit": "fold"}, {"measurement": "CD22: CD20+/CD20- (ratio of median fluorescent intensity)", "setting": "[5]", "value": 10.8, "unit": "fold"}, {"measurement": "CD22 Median Fluorescent Intensity on CD20+ cells", "setting": "[6]", "value": 1490}]}]}
